Consider 68 molecules from patent publication US20200040057A1 (IMMATICS BIOTECHNOLOGIES, published 2020).

In one assay the target is HLA-B*07 (human). In words: UV peptide exchange ELISA; ++++ = yield >75%.
Take RPYSIYPHGVTF: the peptide exchange yield was more than 75%.

Consider LPMTVISVL, for which the peptide exchange yield is more than 75%.

SVAIAHGVF showed a peptide exchange yield of more than 75%.

KPRTIYSSL displayed a peptide exchange yield of more than 75%.

Turning to WPNHIMLVL, the peptide exchange yield was more than 75%.

In turn, VPAQRLGLL came in with a peptide exchange yield of more than 75%.

QPSLKKIIL came in with a peptide exchange yield of more than 75%.

As for APKFISPASQL, the peptide exchange yield is more than 75%.

APRGPAQGEAA registered a peptide exchange yield of more than 75%.

VPVSRPVL registered a peptide exchange yield of more than 75%.

In the case of APMAPGRSPL, the peptide exchange yield is more than 75%.

For the molecule APLKMLAL, the peptide exchange yield was more than 75%.

Regarding SPRIPFSTF, the peptide exchange yield was more than 75%.

Molecule MPAGGGPRSL showed a peptide exchange yield of more than 75%.

As for LPGEREAAL, the peptide exchange yield was more than 75%.

LPVSSPVTL returned a peptide exchange yield of more than 75%.

The molecule VPKADLLTL registered a peptide exchange yield of more than 75%.

Regarding FPNVYSTLVL, the peptide exchange yield is more than 75%.

As for APHAGGALL, the peptide exchange yield was more than 75%.

Consider SPVFYVQTL, for which the peptide exchange yield was more than 75%.

On to VPVSHPVL, for which the peptide exchange yield was more than 75%.

In turn, QPRLVPGETL showed a peptide exchange yield of more than 75%.

As for FPRTVKHIDAAL, the peptide exchange yield is more than 75%.

In turn, FPRLVGPDFF returned a peptide exchange yield of more than 75%.

Take RPRQTGALM: the peptide exchange yield is more than 75%.

NPVPVITWYKDNRL displayed a peptide exchange yield of more than 75%.

Turning to IPWFIKTAF, the peptide exchange yield is more than 75%.

Regarding SPSYTQASL, the peptide exchange yield is more than 75%.

For the molecule KPKVESQAL, the peptide exchange yield is more than 75%.

Regarding APTPRPKVL, the peptide exchange yield was more than 75%.

As for QPVLPSPAC, the peptide exchange yield is more than 75%.

As to RPSFPNLTSF, the peptide exchange yield was more than 75%.

In turn, RPQPQPRPAL registered a peptide exchange yield of more than 75%.

In turn, SPSQTVQRAV displayed a peptide exchange yield of more than 75%.

The molecule LPALLRSGLTL gave a peptide exchange yield of more than 75%.

The next assay deals with HLA-B*07 (human). In words: UV peptide exchange ELISA; +++ = yield >50.
Molecule VPYYPRANL returned a peptide exchange yield of 50 to 75%.

Molecule GPFQRAAL displayed a peptide exchange yield of 50 to 75%.

Take YPSPLNKHSF: the peptide exchange yield was 50 to 75%.

In turn, TVRPKNAAL yielded a peptide exchange yield of 50 to 75%.

Take APRGSPPI: the peptide exchange yield lay within 50 to 75%.

RPLPVSPARAL came in with a peptide exchange yield of 50 to 75%.

RPVQGIPTY registered a peptide exchange yield of 50 to 75%.

Turning to APFHIDRLF, the peptide exchange yield fell in the range of 50 to 75%.

For MPFRNIRSIL, the peptide exchange yield is 50 to 75%.

Molecule SAQSLHPVL came in with a peptide exchange yield of 50 to 75%.

VWEPQGSSRSL: the peptide exchange yield lay in the range of 50 to 75%.

For the molecule KTKSLAQQL, the peptide exchange yield fell in the range of 50 to 75%.

In the case of NPERHKPSF, the peptide exchange yield lay within 50 to 75%.

In the case of YPMIPPAQL, the peptide exchange yield lay within 50 to 75%.

MPRLLRLSL gave a peptide exchange yield of 50 to 75%.

In the case of LPLGGHKSL, the peptide exchange yield was 50 to 75%.

Take VPGSDPARYEFL: the peptide exchange yield fell in the range of 50 to 75%.

The molecule APLHGGGSL showed a peptide exchange yield of 50 to 75%.

HVAQPAVVL displayed a peptide exchange yield of 50 to 75%.

Turning to SSASFSSELFRH, the peptide exchange yield lay within 50 to 75%.

The molecule RPPPSRRAVL came in with a peptide exchange yield of 50 to 75%.

For LVILQHQAM, the peptide exchange yield fell in the range of 50 to 75%.

The molecule RPLPNSVIHV returned a peptide exchange yield of 50 to 75%.

Regarding SPSSVFTSK, the peptide exchange yield lay in the range of 50 to 75%.

Consider LPVSPARAL, for which the peptide exchange yield fell in the range of 50 to 75%.

In the case of GSRPVTGSV, the peptide exchange yield is 50 to 75%.

RPSQLAPATL gave a peptide exchange yield of 50 to 75%.

VPAQRLGLLL gave a peptide exchange yield of 50 to 75%.

For the molecule GPKKFIVKL, the peptide exchange yield was in the range of 50 to 75%.

As to IPIRVDQNGAF, the peptide exchange yield is 50 to 75%.

VAAAARLTL registered a peptide exchange yield of 50 to 75%.

With RPRLRDLPAL, the peptide exchange yield lay in the range of 50 to 75%.

LPRALMRST showed a peptide exchange yield of 50 to 75%.
